Measured values as given in PMC10799922.

Legend:
[1] = biological target: 3C8 iAb_(aff1) Fab (anti-OX40 clone 3C8 engrafted with the iAb_(aff1) residue set, expressed as a monomeric Fab)
[2] = biological target: 3C8 iAb_(aff1) Fab (anti-OX40 clone 3C8 engrafted with the iAb_(aff1) residue set, expressed as a monomeric Fab); assay: AUC; sedimentation velocity; 3C8 iAb_(aff1) Fab at 0.6, 0.2 and 0.07 mg/ml in 25 mM histidine acetate pH 5.5, 150 mM NaCl; 20 °C, 50,000 RPM; global fit to a monomer-dimer equilibrium model (dimer to monomers)

B1: 3C8 iAb_(aff1) Fab (anti-OX40 clone 3C8 engrafted with the iAb_(aff1) residue set, expressed as a monomeric Fab) (Fab, V domains shown)
VH: EVQLVQSGAEVKKPGATVVVLCKASGYAFTNYLIEWVRQAPGQGLEWIGVINPGSGDTYYSEKFKGRVTLFADTSTSQAILILTSLRSEDTAVYYCARDRLDYWGQGTLVTVSS
VL: DIQMTQSPSSLSASVGDRVTITCHASQDISSYIVWYQQKPGKSFKGLIYHGTNLESGVPSRFSGSGSGTDFTLTISSLQPEDFATYYCVHYAQFPYTFGQGTKVEIK
OX40 agonism of the monomeric Fab in Jurkat OX40 NF-kB luciferase reporter cells; EC50 against the full-length iAb (aff1) IgG [1]: 100 fold | Kd [2]: 6.8 µM | stoichiometry N [2]: 2
